Data reported in PMC8699515.

Target: T1, C-reactive protein (CRP) from human pleural fluid (human) (UniProt P02741)
T1 sequence: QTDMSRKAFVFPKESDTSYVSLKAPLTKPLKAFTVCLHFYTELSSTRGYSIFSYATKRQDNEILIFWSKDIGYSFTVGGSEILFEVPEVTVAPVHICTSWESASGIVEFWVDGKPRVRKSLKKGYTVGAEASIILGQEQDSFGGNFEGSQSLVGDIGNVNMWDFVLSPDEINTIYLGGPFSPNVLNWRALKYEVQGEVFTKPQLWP
Experiment: ELISA; phage screening ELISA: CRP 0.25 ug/well coated overnight at 4 C on MaxiSorp, saturated with 3% BSA-PBS; phages in culture supernatant (100 uL, not normalised) 2 h at room temperature; anti-M13 HRP, TMB, absorbance at 450 nm; ratio of the CRP signal to the BSA control, triplicates

B1: anti-CRP nanobody H7 displayed on phage (VHH)
VHH: EVQLQASGGGLVQAGGSLRLSCAASGRTFSSYATGWYRQAPGKERELVAAISSGGSTYYADSVKGRFTISRDNAKNTVYLQMNSLKAEDTAVYYCAGGRRVGVLIGNEYDYWGQGTLVTVSS
- Screening ELISA (CRP/BSA Signal): 7.1
